Measured values as given in patent publication US20050214798A1 (WISTAR INSTITUTE OF ANATOMY AND BIOLOGY, published 2005).

Target: T1, Bin2 (Bridging INtegrator-2) (human, UniProt Q9UBW5 1-565)
T1 construct: In vitro translated in the presence of 35S-methionine from the full-length cDNA
T1 sequence: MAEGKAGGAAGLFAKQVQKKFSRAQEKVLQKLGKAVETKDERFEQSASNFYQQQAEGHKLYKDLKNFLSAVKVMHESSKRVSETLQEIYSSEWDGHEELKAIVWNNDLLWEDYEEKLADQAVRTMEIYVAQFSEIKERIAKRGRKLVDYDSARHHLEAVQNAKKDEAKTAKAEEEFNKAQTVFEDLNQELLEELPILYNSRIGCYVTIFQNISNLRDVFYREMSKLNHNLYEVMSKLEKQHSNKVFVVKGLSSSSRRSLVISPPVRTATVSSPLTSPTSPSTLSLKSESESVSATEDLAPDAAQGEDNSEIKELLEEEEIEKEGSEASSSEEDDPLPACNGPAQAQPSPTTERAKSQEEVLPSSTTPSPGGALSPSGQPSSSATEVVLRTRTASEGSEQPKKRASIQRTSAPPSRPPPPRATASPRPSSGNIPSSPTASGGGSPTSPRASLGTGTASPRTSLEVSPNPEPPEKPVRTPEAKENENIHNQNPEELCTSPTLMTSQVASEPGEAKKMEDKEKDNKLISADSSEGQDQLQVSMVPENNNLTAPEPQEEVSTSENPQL
Test: co-immunoprecipitation of in vitro translated proteins, deletion mutant
Description: Stable complexes have been reported in yeast between RVS161 and RVS167 and in brain between amphiphysin and brain-specific splice isoforms of Bin1 [Navarro et al., Biochim. Biophys. Acta, 1343: 187-192 (1997); Wigge et al., Mol. Biol. Cell 8: 2003-2015 (1997)]. Since Bin1 is expressed in hematopoietic cells, whether Bin2 and Bin1 could also form a stable biochemical complex was investigated. For coimmunoprecipitation experiments, Bin1 was in vitro translated in the presence or absence of Bin2 and complex formation was assessed by SDS-PAGE and fluorography after immunoprecipitation with the Bin1 monoclonal antibody 99D [Wechsler-Reya et al., Cancer Res. 57: 3258-3263 (1997)].
Other deletion mutants of Bin1 lacking the so-called Unique central region, the Myc-binding domain, or the SH3 domain, interacted with Bin2 with the same efficiency as wild-type Bin1 (data not shown). It was concluded that Bin1 and Bin2 formed a BAR domain-dependent complex in cells.

binding result: no binding
B1: Bin1 deletion mutant Δ1-122 (other)
chain: LLTMDTYLGQFPDIKSRIAKRGRKLVDYDSARHHYESLQTAKKKDEAKIAKAEEELIKAQKVFEEMNVDLQEELPSLWNSRVGFYVNTFQSIAGLEENFHKEMSKLNQNLNDVLVGLEKQHGSNTFTVKA
